From patent publication US20030003461, “Truncation selex method” (Gilead Sciences, Inc., published 2003)
Positions count from the first letter of the chain named.

B1: VEGF hyb 2a,23 (VT30.3) (ssRNA)
RNA: GGGAGGACGAUGCGGAGAAUCAGUGAAUGCUUAUAAAUCUCGUGUCAGACGACUCGCCCGA
modifications: 2'-F pyrimidines
B2: VEGF hyb 6 (ssRNA)
RNA: GGGAGGACGAUGCGGAUUUGGAUGCAUGUCAAGGCGUUUUGCCCUCAGACGACUCGCCCGA
modifications: 2'-F pyrimidines
B3: VEGF hyb 1 (ssRNA)
RNA: GGGAGGACGAUGCGGAGCUAGGUGAAUGCCGAUAUUCUCUUCCGUCAGACGACUCGCCCGA
modifications: 2'-F pyrimidines
B4: T2-18 (ssRNA)
RNA: GGGAGUGGAAAUCAGUGAAUGCUUAUAGUUUCUCGCGUCACACAGACGACUCGCCCGA
modifications: 2'-F pyrimidines
B5: VT30.9 (ssRNA)
RNA: GGGAGGACGAUGCGGUCAACCGGUUGAAUAUUUGGUCGCUGACCUCAGACGACUCGCCCGA
modifications: 2'-F pyrimidines
B6: T2-23 (ssRNA)
RNA: GGGAGGGACUGAAUGAAUGUUGACGGUUACGCUUUCCCCACAGACGACUCGCCCGA
modifications: 2'-F pyrimidines
B7: VEGF hyb 15b,19 (ssRNA)
RNA: GGGAGGACGAUGCGGACAUGUAGGAAGAAUUGGAAGAUGCCGCGUCAGACGACUCGCCCGA
modifications: 2'-F pyrimidines
B8: VEGF hyb 24 (ssRNA)
RNA: GGGAGGACGAUGCGGAAGGCGACUUGUAUGUGAUUCAGUAUUGGUCAGACGACUCGCCCGA
modifications: 2'-F pyrimidines
B9: VT30.3 (ssRNA)
RNA: B1 RNA
modifications: 2'-F pyrimidines
B10: T2-17 (ssRNA)
RNA: GGGAGAGGAGAAUCAGUGAAUGCUUAUAAAUCUCGUGUCACACAGACGACUCGCCCGA
modifications: 2'-F pyrimidines
B11: VEGF hyb 3a (VT30.1) (ssRNA)
RNA: GGGAGGACGAUGCGGAACUAGUGAAUGCUUAUACGACCGUGUUGUCAGACGACUCGCCCGA
modifications: 2'-F pyrimidines
B12: VEGF hyb 4b (ssRNA)
RNA: GGGAGGACGAUGCGGAGACUUUGGAAGAAUUGAAUUUGUCCGUGUCAGACGACUCGCCCGA
modifications: 2'-F pyrimidines
B13: T2-20 (ssRNA)
RNA: GGGAGGGGAGGAAACGGAAGAAUUGGAAAACACCCGUCAGCACAGACGACUCGCCCGA
modifications: 2'-F pyrimidines
B14: T2-11 (ssRNA)
RNA: GGGAGGGACACUGGUUCCGAAGUAUUGUCUUUGUCCUCACAGCAGACGACUCGCCCGA
modifications: 2'-F pyrimidines
B15: isolate 7 (ssRNA)
RNA: GGGAAAGCCCACGCCAGUAAUUACGCCAUGAACACAGGCAUAAAGAAGUACAUAUGGUACCGAACUGCCGCACC
B16: mreD isolate 5 (ssRNA)
RNA: GGGAAAGCCCACGCCUGAUUUGCAGCAACAGCGCAAUGAGGAAAGAGAGCCAGAUUACCCACCGAACUGCCGCACC
B17: ygiI isolate 4 (ssRNA)
RNA: GGGAAAGCCCACGCCUAGGAGAGCGUUAACAACAGCAUCAGCGUUGAAGUGACGGAGGUACCGAACUGCCGCACC
B18: o356 isolate 3 (ssRNA)
RNA: GGGAAAGCCCACGCCAAUGUUCCACCAGCAGGGGAAAUGAUGUUGUUCUGGCUACCGAACUGCCGCACC
B19: pheT isolate 2 (ssRNA)
RNA: GGGAAAGCCCACGCCCUUCGCUUCAGUACCGUCGAGCAGCACCAGCGUUUCGCCACCGAACUGCCGCACC
B20: VEGF hyb 13b,21a (ssRNA)
RNA: GGGAGGACGAUGCGGUGUUGAUCGAGAUUUAAUCUAUUUCCACGUCAGACGACUCGCCCGA
modifications: 2'-F pyrimidines
B21: VEGF hyb 4a (ssRNA)
RNA: GGGAGGACGAUGCGGAAACGGAACUUCUUGGAUACAUCUGCUCGUCAGACGACUCGCCCGA
modifications: 2'-F pyrimidines
B22: VEGF hyb 21b (ssRNA)
RNA: B3 RNA with A16U, G17A, U35A, C39U, U40A
modifications: 2'-F pyrimidines
B23: T1-1 (ssRNA)
RNA: GGGAGCGGACGACCUGGUGAAUGCCAAUAUACUUUUCGCGUCACAGACGACUCGCCCGA
modifications: 2'-F pyrimidines
B24: T1-2 (ssRNA)
RNA: GGGAGACCACCAGACGACUCGCCCGAACGCUUAUCCUCUGGUCAGACGACUCGCCCGA
modifications: 2'-F pyrimidines
B25: T1-15 (ssRNA)
RNA: GGGAGGGGGGGGGAGUGAAUGCUUAUUAGAUCUGCCGUCACAGACGACUCGCCCGA
modifications: 2'-F pyrimidines
B26: T1-4 (ssRNA)
RNA: GGGAGGCAGACGACUCGCCCGAGGAUACACAUCGUGUGGUCAGACGACUCGCCCGA
modifications: 2'-F pyrimidines
B27: T1-5 (ssRNA)
RNA: GGGAGGGUGAAUGCCAACGAUUUUAUCGCCUAUCGUCACAGACGACUCGCCCGA
modifications: 2'-F pyrimidines
B28: T1-13 (ssRNA)
RNA: GGGAGCAGACGACUCGCCCGACAGACCACUCGCCCGACAGACGACUCGCCCGA
modifications: 2'-F pyrimidines
B29: VEGF hyb 10,16b (ssRNA)
RNA: GGGAGGACGAUGCGGUGAAACGGAAGAAUUGGAAACAUUGCUCGUCAGACGACUCGCCCGA
modifications: 2'-F pyrimidines
B30: rffG isolate 1 (ssRNA)
RNA: GGGAAAGCCCACGCCGGCACGCGUAUUCACUGAGCAUCAGCCAGACUGUGUACCGAACUGCCGCACC

Each binder was assayed against TGFβ1 (Homo sapiens, UniProt P01137 P01137:279-390) (assay: cell_activity; full inhibition of TGFβ1 in mink lung epithelial cell proliferation assay). Details: tags: recombinant human, R&D Systems; chain copies: 2.
Method: RNA was synthesized by phosphoramidite chemistry. Indicator cells (mink lung epithelial cells) were incubated with TGFβ1 and dilutions of RNA as described. The extent of cell proliferation was measured by ³H-thymidine incorporation and the data were analyzed as described. The points represent an average of n=2 and error bars are standard errors. The sequence of CD70syn and 30N7-9syn are 5′[…] (SEQ ID NO:323) and 5′[…] (SEQ ID NO:324), respectively.
The bioactivity of TGFβ1 nucleic acid ligands was measured with mink lung epithelial cells as described in U.S. patent application Ser. No. 09/046,247, filed Mar. 23, 1998. Briefly, proliferation of these cells is inhibited by TGFβ1. Human TGFβ1 was titrated on the cells and ³H-thymidine incorporation was measured. The point at which ³H-thymidine incorporation by the cells was inhibited by 90-100% was determined (typically 1-4 pM). This inhibitory amount of TGFβ1 along with varying amounts of nucleic acid ligand (typically 0.3 or 1 nM to 1 or 3 μM, in 3 fold increments) was used. Cells were plated at 1×10⁵/ml in 96-well plates in 100 μl MEM, 10 mM HEPES pH 7.5, 0.2% FBS. […] After incubation, the cells were lysed with 1% Triton X-100 and harvested onto GF/B filter plates by the Packard 96 well plate harvester, and ³H-thymidine incorporation in cellular DNA was quantitated by scintillation counting in microscint at the Packard Top-Count. […]

TGFβ1, sequence (P01137 279-390, one chain of several): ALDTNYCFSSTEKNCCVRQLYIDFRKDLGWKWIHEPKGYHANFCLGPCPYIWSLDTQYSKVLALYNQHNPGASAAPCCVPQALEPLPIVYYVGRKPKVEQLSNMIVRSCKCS

Row | Binder | Ki [nM]
1 | GGGUGCCUUUUGCCUAGGUUGUGAUUUGUAACCUUCUGCCCA (ssRNA, 2'-F pyrimidines (inferred)) [CD70syn] | ~74.6

What follows are binders tested against T1, VEGF (Homo sapiens, UniProt P15692-4 P15692-4:27-191) (assay: filter; phenotype 4: unaffected). Details: tags: recombinant human, R&D Systems; chain copies: 2.
T1 sequence (P15692 other isoform, or with tags, fused parts or gaps): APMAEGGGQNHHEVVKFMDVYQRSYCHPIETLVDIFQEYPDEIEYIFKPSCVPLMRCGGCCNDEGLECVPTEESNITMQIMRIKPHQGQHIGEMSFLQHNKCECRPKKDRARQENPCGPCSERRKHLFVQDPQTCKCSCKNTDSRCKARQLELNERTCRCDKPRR

Row | Binder | binding result
2 | B1 | binds
3 | B2 | binds
4 | B3 | binds
5 | B4 | binds
6 | B5 | binds
7 | B6 | binds

These binders were tested against T1, VEGF (assay: filter; phenotype 2: somewhat affected). Details: tags: recombinant human, R&D Systems; chain copies: 2.

Row | Binder | binding result
8 | B7 | binds
9 | B8 | binds
10 | B9 | binds
11 | B10 | binds
12 | B11 | binds
13 | B12 | binds
14 | GGGAGGAAACGGAAGAAUUGGAAAACACCCGUCCAGACGACUCGCCCGA (ssRNA, 2'-F pyrimidines) [T2-7] | binds
15 | B13 | binds
16 | B14 | binds

The binders below were run against T2, MS2 coat protein (MS2 CP) (bacteriophage MS2, UniProt P03612 P03612:2-130, V75E;A81G) (assay: filter; binds better than natural MS2 site). Details: chain copies: 2 (dimer, stated); hairpin.

Row | Binder | binding result
17 | B15 | binds
18 | B16 | binds
19 | B17 | binds
20 | B18 | binds
21 | B19 | binds

Each binder was assayed against T2, MS2 coat protein (MS2 CP) (assay: filter; only marginally worse than full isolate). Details: chain copies: 2 (dimer, stated); hairpin.

Row | Binder | binding result
22 | GGCACGCGUAUUCACUGAGCAUCAGCCAGACUGUGU (ssRNA) [rffG minus fixed sequences] | binds

The binders below were run against T1, VEGF (assay: filter; phenotype 3: gains significant affinity when truncated). Details: tags: recombinant human, R&D Systems; chain copies: 2.

Row | Binder | binding result
23 | B20 | binds
24 | B21 | binds
25 | B22 | binds

Each binder was assayed against VEGF (VEGF165?) (Homo sapiens, UniProt P15692-4 P15692-4:27-191) (assay: filter; phenotype 5: non-binding with or without 3' fixed sequence). Details: tags: R&D Systems; chain copies: 2; label: 32P body.
VEGF (VEGF165?), sequence (P15692 other isoform, or with tags, fused parts or gaps): as the sequence (P15692 other isoform, or with tags, fused parts or gaps) above

Row | Binder | binding result
26 | GGGAGCAGACGACUCGCCCGAGGAGGAGGGGGGCAGACGACUCGCCCGA (ssRNA, 2'-F pyrimidines) [T1-3] | no binding
27 | B23 | no binding
28 | B24 | no binding
29 | B25 | no binding
30 | GGGAGGUCUCCAGACGACUCGCCCGA (ssRNA, 2'-F pyrimidines) [T1-16] | no binding
31 | B26 | no binding
32 | B27 | no binding
33 | B28 | no binding

Each binder was assayed against T1, VEGF (assay: filter; phenotype 4: unaffected (Table 10 clone 34,36a: phenotype 1)). Details: tags: recombinant human, R&D Systems; chain copies: 2.

Row | Binder | binding result
34 | B29 | binds

The binders below were run against T2, MS2 coat protein (MS2 CP) (assay: filter; tightest of the isolates; 100 mM HEPES-KOH pH 7.5, 80 mM KCl, 10 mM MgCl2, 24-25 C). Details: chain copies: 2 (dimer, stated); hairpin.

Row | Binder | binding result
35 | B30 | binds
